Experimental data published in patent publication US9863962, “Aptamers and sensing technology used for detection of glycated hemoglobin in whole blood” (Alfaisal University).

Assays:
[1] = target: T1, bovine serum albumin (BSA) (Bos taurus, UniProt P02769 P02769:25-607); experiment: impedance; specificity control; conditions: tags: none; Sigma
Experimental: The binding specificity of the HbA1C aptamer (G20) was also confirmed by incubating the HbA1C modified electrode with different concentrations of non glycated Hb and BSA as control. No significant response was obtained for the non specific proteins which indicates excellent specificity of the selected aptamer (FIG. 3). Similarly, the specificity of the tHb aptamer (G15) was verified against BSA as control. The two aptamers, G15 and G20, were then applied for Hb and HbA1C detection a microarray platform.

[2] = target: T2, glycated hemoglobin HbA1c (UniProt P69905;P68871 P69905:2-142,P68871:2-147); experiment: electrochemical impedance on HbA1C-gold electrode; 50 mM Tris pH 7.5, 150 mM NaCl, 2 mM MgCl2; conditions: tags: none; purified HbA1C from Monojo (Amman, Jordan); immobilized on cysteamine/PDITC gold electrode; chain copies: 2
Experimental: (§1) Binding analysis of the aptamer sequences to Hb and HbA1C: In order to test the binding affinity of the aptamer sequences to their protein targets, some representative sequences were synthesized after eliminating the primers sequence. A solution of 25 nM from each aptamer sequence in binding buffer was incubated with the Hb and HbA1C-modified electrodes (described in section 2.3.4) for 30 min. The electrodes were then washed with binding buffer and impedance measurements were recorded in 5 mM [Fe(CN)_6]^{3-/4-} redox couple. The binding was then evaluated by calculating the % $RCT$ change)((R−R°/R°%).
(§2) A significant change in the $Rct$ after the incubation of most of the tested aptamers with the HbA1C electrodes while no response was obtained with scrambled DNA sequence (control DNA) indicating specific binding of the aptamers to HbA1C. […] The highest change in EIS signal was obtained for aptamers G11, G23, G18, G20, G15, therefore these aptamers were subjected to further analysis to assess their binding affinity. The dissociation constants were determined by incubating different concentrations of the aptamers with Hb and HbA1C-modified electrodes. […] The K_d were then calculated from the binding curve using non linear regression analysis. […] Four HbA1C-specific aptamers with high affinity and specificity were obtained (G11, G18, G20, G23). […]

[3] = target: T3, hemoglobin (Hb, non-glycated / total Hb) (UniProt P69905;P68871 P69905:2-142,P68871:2-147); experiment: electrochemical impedance on Hb-gold electrode; 50 mM Tris pH 7.5, 150 mM NaCl, 2 mM MgCl2; conditions: tags: none; purified Hb from Monojo (Amman, Jordan); immobilized on cysteamine/PDITC gold electrode; chain copies: 2
Experimental: as §1, §2

[4] = target: T1, bovine serum albumin (BSA); experiment: square wave voltammetry; no response with BSA; conditions: tags: none; Sigma
Experimental: (§3) For the Hb and HbA1C detection and selectivity experiments, each aptamer-modified electrode on the aptasensor array chip was incubated for 30 min with specific concentrations of Hb and HbA1C standard solutions. The electrodes were then washed with 50 mM Tris-HCl buffer pH 7.4 and subjected to square wave voltammetry (SWV) measurements in 10 mM [Fe(CN)_6]^{3-/4-} redox couple in 0.1 M PBS buffer solution. The parameters used for the SWV measurements: amplitude 20 mV; interval time 0.04 s; step potential −5 mV; scan rate 125 mV s-1, and frequency 25 Hz. The cyclic voltammetry (CV) experiments were conducted at a scan rate of 100 mV/s.
(§4) Dose response of the aptasensors: The aptasensors voltammetric response toward tHb and HbA1C was measured in the concentration range of 100 pg/mL to 10 µg/mL. […] Three independent measurements were done for each data point in order to assess the reproducibility of the aptasensors array. […] The linear regression equation of the HbA1C aptasensor is (i°–i)/ i°%=45.0+14.6×log C [ng/ml], R=0.997, with a detection limit (LOD) of 0.2 ng/mL and for the tHb: (i°−i)/i°%=42.5+20.2×log C [ng/ml], R=0.98, with LOD=0.34 ng/ml. The LOD was calculated from 3(S_{y/x}/m), where S_{y/x} is the standard error of estimate and m is the slope of the calibration curve. […]

[5] = target: T3, hemoglobin (Hb, non-glycated / total Hb); experiment: square wave voltammetry aptasensor on AuNP electrode; LOD 0.34 ng/mL; conditions: tags: none; purified Hb from Monojo (Amman, Jordan); immobilized on cysteamine/PDITC gold electrode; chain copies: 2
Experimental: as §3, §4

[6] = target: T2, glycated hemoglobin HbA1c; experiment: impedance; HbA1C-specific, Kd stated only as nanomolar range; conditions: tags: none; purified HbA1C from Monojo (Amman, Jordan); immobilized on cysteamine/PDITC gold electrode; chain copies: 2
Experimental: as §1
A significant change in the $Rct$ after the incubation of most of the tested aptamers with the HbA1C electrodes while no response was obtained with scrambled DNA sequence (control DNA) indicating specific binding of the aptamers to HbA1C. […] The highest change in EIS signal was obtained for aptamers G11, G23, G18, G20, G15, therefore these aptamers were subjected to further analysis to assess their binding affinity. The dissociation constants were determined by incubating different concentrations of the aptamers with Hb and HbA1C-modified electrodes. […] The K_d were then calculated from the binding curve using non linear regression analysis. […] Four HbA1C-specific aptamers with high affinity and specificity were obtained (G11, G18, G20, G23). […] The aptamer sequences may be made in full or part of it may be used for binding studies. Thus, from our SELEX screening, an aptamer that bind to the tHb (G15) as well as specific aptamers to HbA1C (G20) were obtained.

[7] = target: T2, glycated hemoglobin HbA1c; experiment: impedance screen at 25 nM aptamer; lower signal than top five; conditions: tags: none; purified HbA1C from Monojo (Amman, Jordan); immobilized on cysteamine/PDITC gold electrode; chain copies: 2
Experimental: as §1
Binding affinity analysis of the aptamers: Eight representative sequences were subjected to initial binding analysis. Initial screening of the aptamer sequences (G11, G23, G20, G18, G15, G10, G22, G4) was performed using EIS to confirm their successful binding to HbA1C (FIG. 2A).

[8] = target: T1, bovine serum albumin (BSA); experiment: impedance; no significant response; conditions: tags: none; Sigma
[9] = target: T2, glycated hemoglobin HbA1c; experiment: square wave voltammetry aptasensor on AuNP electrode; LOD 0.2 ng/mL; conditions: tags: none; purified HbA1C from Monojo (Amman, Jordan); immobilized on cysteamine/PDITC gold electrode; chain copies: 2
Experimental: as §3, §4

T1 sequence (P02769 25-607, one chain of several): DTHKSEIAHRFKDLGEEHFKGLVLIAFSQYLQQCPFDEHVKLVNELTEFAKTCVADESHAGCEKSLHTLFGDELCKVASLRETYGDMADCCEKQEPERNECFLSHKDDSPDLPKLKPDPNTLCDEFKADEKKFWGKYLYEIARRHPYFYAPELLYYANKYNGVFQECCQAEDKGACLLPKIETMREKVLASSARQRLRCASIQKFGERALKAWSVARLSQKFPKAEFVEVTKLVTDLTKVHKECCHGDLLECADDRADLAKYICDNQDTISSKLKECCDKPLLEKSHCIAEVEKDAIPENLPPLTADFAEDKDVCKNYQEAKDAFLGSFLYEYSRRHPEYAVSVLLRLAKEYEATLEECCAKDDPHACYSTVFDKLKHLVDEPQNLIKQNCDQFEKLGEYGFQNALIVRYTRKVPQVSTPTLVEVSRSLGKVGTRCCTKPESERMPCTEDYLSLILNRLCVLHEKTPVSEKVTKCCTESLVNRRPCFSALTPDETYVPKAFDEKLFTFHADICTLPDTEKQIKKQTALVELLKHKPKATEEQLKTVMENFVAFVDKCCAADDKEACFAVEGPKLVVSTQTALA
T2 sequence (P69905 2-142, chain 1 of 2): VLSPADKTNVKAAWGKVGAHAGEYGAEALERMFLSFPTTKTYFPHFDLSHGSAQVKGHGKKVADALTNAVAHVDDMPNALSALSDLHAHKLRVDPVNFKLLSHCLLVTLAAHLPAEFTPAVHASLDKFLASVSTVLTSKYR
T2 sequence (P68871 2-147, chain 2 of 2): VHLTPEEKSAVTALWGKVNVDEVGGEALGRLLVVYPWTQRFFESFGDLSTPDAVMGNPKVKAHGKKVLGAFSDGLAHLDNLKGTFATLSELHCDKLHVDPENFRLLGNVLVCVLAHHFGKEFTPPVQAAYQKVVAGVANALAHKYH
T3 sequence (P69905 2-142, chain 1 of 2): as the sequence (P69905 2-142, chain 1 of 2) above
T3 sequence (P68871 2-147, chain 2 of 2): as the sequence (P68871 2-147, chain 2 of 2) above

B1: G15 (ssDNA)
DNA: ACGCACACCAGAGACAAGTAGCCCCCCAAACGCGGCCACGGAACGCAGCACCTCCATGGC
Q: What does the source list for B1?
A: binding result [1]: no binding; Kd [2]: 3.3 nM; Kd [3]: 2.7 nM

B2: thiol-G15 (ssDNA)
DNA: ACGCACACCAGAGACAAGTAGCCCCCCAAACGCGGCCACGGAACGCAGCACCTCCATGGC
modifications: 5' HS-(CH2)6
Q: Does B2 bind [4]?
A: Result: no binding

Q: Does B2 bind [5]?
A: Result: binds

B3: G11 (ssDNA)
DNA: CGACACCAGCACACAGACCCGAGACACACGTCAGATCAACAGCGACCGTATCATTGGTTG
Q: Does B3 bind [6]?
A: Result: binds

B4: G4 (ssDNA)
DNA: GGGCCGACGGGAGGGGGAGGGAGAGCAATACGAGGTGGGATGGCAGATTATGGGTGCACT
Q: Does B4 bind [7]?
A: Result: binds

B5: G18 (ssDNA)
DNA: GGCCACAGCAGCCAGTACACCCACCCACCAGCCCCGTCAACGACCTGAACCTGCCCTGTGTG
Q: Does B5 bind [6]?
A: Result: binds

B6: G20 (ssDNA)
DNA: GGGGACACAGCAACACACCCACCCACCAGCCCCAGCATCATGCCCATCCGTCGTGTGTG
Q: How did the Kd [2] turn out when B6 was run?
A: Its Kd is 2.8 nM.

Q: Does B6 bind [8]?
A: Result: no binding

B7: thiol-G20 (ssDNA)
DNA: GGGGACACAGCAACACACCCACCCACCAGCCCCAGCATCATGCCCATCCGTCGTGTGTG
modifications: 5' HS-(CH2)6
Q: Does B7 bind [4]?
A: Result: no binding

Q: Does B7 bind [9]?
A: Result: binds

B8: G23 (ssDNA)
DNA: GGACACGGCAAAGGGGTATAGCCTACCGGACCGTGGACATGGAATTGTGTGCTGCGTGG
Q: Does B8 bind [6]?
A: Result: binds
